Results reported in patent US9713649.

Molecular target: Prostate specific membrane antigen (PSMA) (UniProt Q04609)
Experiment: competitive binding on LNCaP or PC3-PIP cells; displacement of 12 nM N-[N-[(S)-1,3-dicarboxypropyl]carbamoyl]-S-[3H]-methyl-L-cysteine, scintillation counting

Chain of Prostate specific membrane antigen (PSMA) (Q04609 whole entry): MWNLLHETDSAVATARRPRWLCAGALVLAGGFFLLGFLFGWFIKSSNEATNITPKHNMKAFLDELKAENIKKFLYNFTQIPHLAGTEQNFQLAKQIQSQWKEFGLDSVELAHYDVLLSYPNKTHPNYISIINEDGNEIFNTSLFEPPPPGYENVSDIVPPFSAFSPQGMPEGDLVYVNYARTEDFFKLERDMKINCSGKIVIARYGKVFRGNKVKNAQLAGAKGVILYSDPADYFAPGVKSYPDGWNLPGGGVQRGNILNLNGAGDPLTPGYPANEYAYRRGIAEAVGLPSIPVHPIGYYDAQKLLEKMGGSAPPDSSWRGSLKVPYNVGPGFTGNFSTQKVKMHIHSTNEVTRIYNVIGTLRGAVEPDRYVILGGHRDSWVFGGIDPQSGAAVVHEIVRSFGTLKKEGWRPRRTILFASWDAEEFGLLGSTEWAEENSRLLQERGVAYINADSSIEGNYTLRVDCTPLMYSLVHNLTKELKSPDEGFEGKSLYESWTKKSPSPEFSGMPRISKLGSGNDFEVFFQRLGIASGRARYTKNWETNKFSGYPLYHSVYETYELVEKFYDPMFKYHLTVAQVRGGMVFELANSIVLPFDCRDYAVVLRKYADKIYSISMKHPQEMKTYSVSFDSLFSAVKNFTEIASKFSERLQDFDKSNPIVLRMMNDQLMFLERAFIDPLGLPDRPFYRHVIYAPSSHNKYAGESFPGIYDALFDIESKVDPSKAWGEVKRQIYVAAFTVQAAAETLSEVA

“ZJ-MCC-Ahx-dEdEdEG (Compound 1) (peptide)” was tested, and the IC50 was 2.2 nM.
